# Measurements taken from the supplement of paper PMC10567573.
# ± gives the standard deviation.
# Experiment: protein stability index of a GFP-peptide fusion (GPS, HEK-293T) (PSI 1-6); higher = more stable
# [1] = treatment: DMSO, c terminus: a fixed tail appended
# [2] = treatment: MLN4924 1 uM, 8 h, c terminus: a fixed tail appended
# [3] = treatment: MLN4924 1 uM, 8 h, c terminus: native
# 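Also: 24-mer peptide tiles fused after GFP, lentivirally expressed, FACS-sorted into six equal bins by GFP/DsRed ratio, decoded by Illumina sequencing, PSI is the read-weighted mean bin number.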
Sequence,protein stability index [1],protein stability index [2],"protein stability index (treatment: DMSO, c terminus: native)",protein stability index [3]
AAFEEFDTDRDGYISHRELGDCMR [CABP4],4.25 ± 0.17,4.3 ± 0.36,–,–
AALCALGKDCFLELAPDFVGDILW [ETS1],2.51 ± 0.41,2.95 ± 0.77,–,–
AAQEGEDEGASAGQGPKPEADSQE [GAGE1],5.67 ± 0.17,5.64 ± 0.24,–,–
AASPQDLAGGYTSSLACHRALQDA [MNAT1],4.21 ± 0.25,4.24 ± 0.37,–,–
AASSYSFSDLNSTRGDADMYDLPK [EMD],4.43 ± 0.23,4.53 ± 0.26,–,–
ACLLQLAEIQEACCEFLKRQLDPS [KLHL20],2.32 ± 0.58,2.16 ± 0.053,–,–
ADEQLHCAGKAKRSGGHAPRVREL [ESR2],4.45 ± 0.26,4.39 ± 0.3,–,–
AECALNERGVEGDFLIRDSESSPS [NCK2],5.42 ± 0.33,5.48 ± 0.2,–,–
AEQLRIELNAEKFKNSLLQKELKK [WEE1],3.88 ± 0.28,3.94 ± 0.42,–,–
AESLKGKLEEERAKLHDVELHQVA [GNB5],5.02 ± 0.33,5.23 ± 0.29,–,–
AFPFNMQELVLKVRIQNPSLREND [ANKRD40],2.41 ± 0.46,2.33 ± 0.41,–,–
AFQNDVYEWARDHRAHHKFSETHA [SCD],2.65 ± 0.22,2.69 ± 0.33,–,–
AFSNRSKQLRRQMWWRGCKIKAIM [VAMP4],2.35 ± 0.082,2.44 ± 0.27,–,–
AGEGRLGHKRKQPLPKRVAKVPRP [FOXJ1],4.53 ± 0.45,4.36 ± 0.43,–,–
AGGEKGPQAFPMSRLWDSRLRHYL [DNAAF3],2.12 ± 0.077,2.54 ± 0.065,–,–
AGRLMRPSVKYLSHPRVQSGCDKE [RNF180],4.06 ± 0.21,4.11 ± 0.21,–,–
AGRWLWGAQPCLLLPIVPLSWLVW [ADAMTS4],2.98 ± 1.5,3.24 ± 2.6,–,–
AGSSTWERYFIPVSCFLTFNIFDW [SLC29A1],3.09 ± 0.2,3.05 ± 0.58,–,–
AHHRSGAQVFPESPESESDHEHEE [GNAS],5.63 ± 0.24,5.54 ± 0.26,–,–
AIFSAPAFPAAVSSMKKFCRPLLP [PSD2],2.58 ± 0.12,2.3 ± 0.28,–,–
AILYYYQSGGRLRRPVNVPLDMFS [KCNA1],2.69 ± 0.84,2.29 ± 0.42,–,–
AISVVGVSAGGHTLSRPPPAQVPR [TFE3],3.38 ± 0.24,3.35 ± 0.24,–,–

Sequence,protein stability index [1],protein stability index [2],"protein stability index (treatment: DMSO, c terminus: native)",protein stability index [3]
AKKFRKAVTDLLGRRQRKSEKRRD [WASL],3.88 ± 0.52,3.89 ± 0.2,–,–
ALAGYTGSGPIQLWQFLLELLTDK [ETS1],2.35 ± 0.13,2.48 ± 0.31,–,–
ALARDLLSETADPFFVLNSDVICD [GMPPB],3.07 ± 0.069,3.32 ± 0.26,–,–
ALFFKNIMNIIDIVSILPYFITLG [KCNA4],2.86 ± 0.21,3.43 ± 0.4,–,–
ALIDRPAPYFERSSSKRYTMSRSL [EPB41L3],2.8 ± 0.31,3.12 ± 0.58,–,–
ALKHYVESASSQSGCLRISIQKLS [NECAB1],2.05 ± 0.12,2.18 ± 0.28,–,–
APAFRLSLKAKVSDNMSHLMVDFA [FSD1],2.28 ± 0.1,2.25 ± 0.12,–,–
APAPAPASSGQHHDFLSDLFSDDY [CEBPB],5.13 ± 0.29,5.14 ± 0.16,–,–
APGIGPPEPWPGGCTGDEAESRGH [MYCL],4.97 ± 0.55,5.51 ± 0.23,–,–
APGSASSSKVSGVLKKLAQSRRTA [YJU2B],3.81 ± 0.3,3.87 ± 0.34,–,–
APRLLKREPDWGDGDAPGSLLPAQ [CEBPD],4.87 ± 0.43,5.03 ± 0.37,–,–
AQIDQYVGLVTNQLSHIKAKIRAK [RTN2],2.7 ± 0.3,2.75 ± 0.28,–,–
AQKESLQNQHHSASLQASIFSGAA [APBB1IP],4.03 ± 0.22,3.98 ± 0.26,–,–
AQNACSEHGATLAVIDSEKDMNFL [CD69],4.62 ± 0.29,4.78 ± 0.27,–,–
AQRHRGSAKDGGPQPPDAPQLVSS [PLEKHN1],5.04 ± 0.51,5.22 ± 0.28,–,–
ARSESVLLHMPQPVNPELTAGPIT [TRIM43],4.31 ± 0.061,4.41 ± 0.078,–,–
ASHSLSPSEHVQGKSPVNMVTVAM [ZNF649],3.3 ± 0.29,3.21 ± 0.35,–,–
ASMAPAAALPPVPSPPAAPSVADN [SERTAD1],5.3 ± 0.13,5.31 ± 0.42,–,–
ASSASEPQGLFVEALSVPLSLCVS [CLPTM1],2.31 ± 0.2,2.25 ± 0.36,–,–
ASSPGNPTALANGTVQAPKQKGD [LPCAT4],–,–,5.31 ± 0.21,5.22 ± 0.35
ASSPYISSVQSYPGSASLAQSRLE [DLX1],3.92 ± 0.18,4.13 ± 0.14,–,–
ATPGGGTGEAARPHKGLNLHPLLS [PCDHGC5],3.74 ± 0.17,3.83 ± 0.21,–,–

Sequence,protein stability index [1],protein stability index [2],"protein stability index (treatment: DMSO, c terminus: native)",protein stability index [3]
ATYIFIFIGETLLSMNWAIVADIL [SPNS1],3.13 ± 0.39,2.68 ± 0.74,–,–
AVEDGLQQFKQYSRHVTTRAALTY [M1AP],3.14 ± 0.42,3.1 ± 0.23,–,–
AVSCVFLAFVIVLLAHRLRRWHKS [PCDHGA10],2.33 ± 0.36,1.92 ± 0.23,–,–
AVTLRCGHNFCRGCVSRCWEVQVS [TRIM35],2.62 ± 0.12,2.33 ± 0.43,–,–
AVTPAGVVNKYQINGLQAWLLTHL [DHCR7],2.19 ± 0.23,2.15 ± 0.16,–,–
AVVSQMDQEQGSSFQMSEGSEAAV [FAM189A2],5.46 ± 0.29,5.44 ± 0.17,–,–
AWKHGNIHLSAPCIYSEVMEALKL [PCMTD1],2.28 ± 0.34,2.14 ± 0.33,–,–
AWVANFERPRMNANSLLASPTGLS [CRY1],2.64 ± 0.5,2.97 ± 0.37,–,–
CAIASGSELSESAFGYFITACAVI [SLC29A1],3.37 ± 0.67,3.12 ± 0.34,–,–
CAIQASLNQGSVFQEYDTDCEVFR [ZNF449],2.79 ± 0.82,2.67 ± 0.48,–,–
CAVLDDSIYLVGGYSWSMGAYKSS [KLHL14],2.52 ± 0.64,2.17 ± 0.64,–,–
CDECGKIFSQSSALILHQRIHSGK [ZNF396],5.51 ± 0.39,5.51 ± 0.11,–,–
CHECGKKFSQNSHLIKHRRTHTGE [ZNF75A],5.19 ± 0.29,4.72 ± 0.25,–,–
CKVFGIHKACEVAPLQSVFQGQKT [TRIM63],2.81 ± 0.26,2.96 ± 0.39,–,–
CLHMFLQDEIIDKSYTPSKIRHA [SNX3],–,–,–,2.77 ± 0.46
CLVFELLSYNLYDLLRNTHFRGVS [DYRK1B],2.95 ± 0.3,3.3 ± 0.16,–,–
CRDGEVLLRLSKHGPGHETPMTIP [ACSBG2],2.62 ± 0.4,2.66 ± 0.63,–,–
CREQLDIMNDLSNRVWSISQEPDP [TRIM14],3.43 ± 0.28,3.43 ± 0.21,–,–
CRFNQDPEAVDEDRSTEPDRLQVF [ATE1],4.54 ± 0.18,4.55 ± 0.2,–,–
CRKCIASSGCFMEYLENQVIKDKD [RNF180],2.42 ± 0.26,2.5 ± 0.41,–,–
CRLINEDVNEQVMQVLGPEDLQSI [CEP70],3.65 ± 0.32,3.54 ± 0.28,–,–
